Laboratory results from patent US20240417458A1 (DISC MEDICINE, published 2024).
Values joined by “and” are separate entries in the source; they are usually repeats but may differ in a detail not shown here. Equal values may be shown once. Each block holds one binder with its values, some of them ahead of it.

Columns and labels:
[1] = molecular target: T1, FcRn; assay: SPR (BIAcore) at pH 6.0
T1 construct: also called neonatal Fc receptor

[2] = molecular target: T2, soluble human RGMc (human, UniProt Q6ZVN8 36-400); assay: SPR; method not named in Example 2
T2 construct: also called huRGMc; soluble hRGMc
T2 sequence: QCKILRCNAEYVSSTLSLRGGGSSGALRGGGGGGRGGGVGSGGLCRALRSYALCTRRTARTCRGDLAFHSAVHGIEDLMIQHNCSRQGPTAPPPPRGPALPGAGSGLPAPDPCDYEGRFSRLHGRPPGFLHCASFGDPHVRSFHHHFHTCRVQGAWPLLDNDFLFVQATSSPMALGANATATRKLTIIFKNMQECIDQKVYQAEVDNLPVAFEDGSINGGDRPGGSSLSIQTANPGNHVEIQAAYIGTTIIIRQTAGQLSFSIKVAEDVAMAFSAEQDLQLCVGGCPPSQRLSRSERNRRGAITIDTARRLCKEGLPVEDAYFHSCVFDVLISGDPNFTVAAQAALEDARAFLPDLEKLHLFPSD

[3] = molecular target: T3, soluble human RGMa (human, UniProt Q96B86 48-422, limits assumed); assay: SPR; method not named in Example 2
T3 construct: Soluble antigen in BIAcore; also called huRGMa; repulsive guidance molecule A
T3 sequence (looked up): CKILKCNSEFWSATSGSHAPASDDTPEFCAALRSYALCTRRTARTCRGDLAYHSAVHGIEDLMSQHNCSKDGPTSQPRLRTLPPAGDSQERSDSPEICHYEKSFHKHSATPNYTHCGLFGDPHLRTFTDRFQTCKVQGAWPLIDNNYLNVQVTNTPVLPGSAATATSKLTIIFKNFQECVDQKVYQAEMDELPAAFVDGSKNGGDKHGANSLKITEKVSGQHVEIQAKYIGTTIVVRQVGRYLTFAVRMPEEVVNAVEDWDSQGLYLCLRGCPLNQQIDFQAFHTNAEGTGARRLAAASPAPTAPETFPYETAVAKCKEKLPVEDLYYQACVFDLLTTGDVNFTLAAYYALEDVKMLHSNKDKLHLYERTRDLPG

[4] = molecular target: T4, membrane-bound human RGMa (human, UniProt Q96B86 169-424); assay: cell-based or functional assay
T4 sequence (looked up): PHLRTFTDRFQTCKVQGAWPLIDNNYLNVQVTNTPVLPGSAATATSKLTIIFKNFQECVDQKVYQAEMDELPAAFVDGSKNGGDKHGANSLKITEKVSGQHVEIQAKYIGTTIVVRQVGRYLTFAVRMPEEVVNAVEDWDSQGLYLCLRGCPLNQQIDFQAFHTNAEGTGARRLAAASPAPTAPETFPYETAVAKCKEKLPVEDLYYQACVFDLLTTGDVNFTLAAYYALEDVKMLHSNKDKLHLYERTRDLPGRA

[5] = molecular target: T4, membrane-bound human RGMa; assay: cell-based or functional assay; remark: listed apart in the source
[6] = molecular target: T5, membrane-bound human RGMc (human, UniProt Q6ZVN8 36-400); assay: cell-based or functional assay
T5 sequence: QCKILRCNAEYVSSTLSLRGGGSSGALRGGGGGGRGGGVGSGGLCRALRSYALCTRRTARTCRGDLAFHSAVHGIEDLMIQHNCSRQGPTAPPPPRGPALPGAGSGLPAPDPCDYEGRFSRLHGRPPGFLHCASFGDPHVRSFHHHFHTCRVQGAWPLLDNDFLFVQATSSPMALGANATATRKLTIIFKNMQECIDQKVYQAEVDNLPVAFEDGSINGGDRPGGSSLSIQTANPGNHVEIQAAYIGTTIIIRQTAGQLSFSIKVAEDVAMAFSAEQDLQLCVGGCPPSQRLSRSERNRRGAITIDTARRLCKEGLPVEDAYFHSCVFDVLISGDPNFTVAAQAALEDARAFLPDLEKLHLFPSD

[7] = molecular target: T5, membrane-bound human RGMc; assay: cell-based or functional assay; remark: listed apart in the source
[8] = molecular target: T4, membrane-bound human RGMa; assay: cell-based or functional assay; remark: listed apart in the source
[9] = molecular target: T2, soluble human RGMc; assay: SPR (BIAcore), soluble hRGMc; summary table
[10] = molecular target: T2, soluble human RGMc; assay: SPR (BIAcore);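 further: Anti-HJV antibodies, binding affinity to soluble human RGMc measured by BIAcore surface plasmon resonance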
Method: (§1) Binding affinities of the anti-HJV antibodies to soluble human RGMa, Rat RGMa and human RGMc were measured by BIAcore analysis.

[11] = molecular target: T5, membrane-bound human RGMc; assay: cell-based or functional assay; remark: listed apart in the source
[12] = molecular target: T3, soluble human RGMa; assay: SPR (BIAcore);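 further: Anti-HJV antibodies tested for binding against soluble human RGMa by surface plasmon resonance on a BIAcore instrument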
Method: as §1

[13] = molecular target: T6, soluble rat RGMa (rat, UniProt D4A188 48-421); assay: SPR (BIAcore);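 further: binding kinetics and affinity of anti-HJV antibodies toward soluble rat RGMa, determined by SPR on a BIAcore instrument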
T6 construct: Soluble antigen in BIAcore
T6 sequence: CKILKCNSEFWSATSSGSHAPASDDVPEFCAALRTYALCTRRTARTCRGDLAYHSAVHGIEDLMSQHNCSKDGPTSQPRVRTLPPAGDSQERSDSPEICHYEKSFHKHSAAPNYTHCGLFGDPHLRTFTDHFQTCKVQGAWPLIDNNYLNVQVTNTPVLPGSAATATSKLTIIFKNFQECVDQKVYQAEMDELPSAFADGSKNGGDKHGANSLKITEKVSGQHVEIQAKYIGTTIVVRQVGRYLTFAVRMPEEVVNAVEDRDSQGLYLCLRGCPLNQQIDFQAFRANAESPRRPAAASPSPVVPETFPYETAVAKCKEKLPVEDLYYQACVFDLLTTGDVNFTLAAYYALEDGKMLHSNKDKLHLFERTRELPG
Method: as §1

Kd [1]: 900 nM and 882 nM
Kd [2]: 0.12 nM
koff [2]: 0.00033 s⁻¹
kon [2]: 2.7e+06 M⁻¹ s⁻¹
Kd [3]: 0.077 nM
koff [3]: 3.3e-05 s⁻¹
kon [3]: 430000 M⁻¹ s⁻¹
B1: hHA-008-QL (antibody, human IgG1, kappa, L234A L235A)
heavy: EVQLVESGGGLVQPGGSLRLSCAASGFTFSNYGMNWVRQAPGKGLEWIGMIYYDSSEKHYADSVKGRFTISRDNSKNTLYLQMNSLRAEDTAVYYCAKGTTPDYWGQGTMVTVSSASTKGPSVFPLAPSSKSTSGGTAALGCLVKDYFPEPVTVSWNSGALTSGVHTFPAVLQSSGLYSLSSVVTVPSSSLGTQTYICNVNHKPSNTKVDKKVEPKSCDKTHTCPPCPAPEAAGGPSVFLFPPKPKDQLMISRTPEVTCVVVDVSHEDPEVKFNWYVDGVEVHNAKTKPREEQYNSTYRVVSVLTVLHQDWLNGKEYKCKVSNKALPAPIEKTISKAKGQPREPQVYTLPPSREEMTKNQVSLTCLVKGFYPSDIAVEWESNGQPENNYKTTPPVLDSDGSFFLYSKLTVDKSRWQQGNVFSCSVLHEALHNHYTQKSLSLSPGK
light: DVVLTQSPLSLPVTLGQPASISCRSSQSLEESDGYTFLHWFQQRPGQSPRLLIYEVSTRFSGVPDRFSGSGSGTDFTLKISRVEAEDVGVYYCFQATHDPLTFGQGTKLEIKRTVAAPSVFIFPPSDEQLKSGTASVVCLLNNFYPREAKVQWKVDNALQSGNSQESVTEQDSKDSTYSLSSTLTLSKADYEKHKVYACEVTHQGLSSPVTKSFNRGEC
notes: hHA-008 with T250Q and M428L (QL) in the Fc besides L234A, L235A; kappa; also called hHA-008-QL (hIgG1mut(LALA)/QL/k)

IC50 (nM), BMP reporter assay for RGMa [4]: 1.66 nM
Potency on membrane hRGMa (RGMa/BMP reporter assay), IC50 [5]: 1.7 nM
Potency on membrane hRGMc (RGMc/BMP reporter assay), IC50 [6]: 0.52 nM
IC50 (read off the curve) [7]: ~0.5 nM
IC50 (read off the curve) [8]: ~2 nM
Kd [9]: 0.285 nM
koff [9]: 0.0014 s⁻¹
kon [9]: 5.05e+06 M⁻¹ s⁻¹
Kd [10]: 0.285 nM
koff [10]: 0.0014 s⁻¹
kon [10]: 5.05e+06 M⁻¹ s⁻¹
IC50 (nM), BMP reporter assay for RGMc (BRE-Luc, HEK293) [11]: 0.0554 nM
Kd [12]: 0.11 nM
koff [12]: 9.9e-05 s⁻¹
kon [12]: 930000 M⁻¹ s⁻¹
Kd [13]: 0.074 nM
koff [13]: 5.2e-05 s⁻¹
kon [13]: 700000 M⁻¹ s⁻¹
B2: hHA-011 (antibody, human IgG1, kappa, L234A L235A, V domains shown)
VH: EVQLVESGGGLVQPGGSLRLSCAASGFTFSNYGMNWVRQAPGKGLEWIGMIYYDSSEKHYADSVKGRFTISRDNSKNTLYLQMNSLRAEDTAVYYCAKGSTPDYWGQGTMVTVSS
VL: DVVLTQSPLSLPVTLGQPASISCRSSQSLEDSDGGTFLEWFQQRPGQSPRLLIYDVSSRFSGVPDRFSGSGSGTDFTLKISRVEAEDVGVYYCFQATHDPLSFGQGTKLEIKR
notes: hIgG1 L234A, L235A, kappa
